# Assay results taken from patent US20240270821A1, “GIP/GLP1/GCG TRI-RECEPTOR AGONISTS AND USES THEREOF” (priority 2023, published 2024).
# Where a chain is given by its changes, count along the chain named.
# T1: human GIP receptor (human) (UniProt P48546)
# T1 sequence (looked up): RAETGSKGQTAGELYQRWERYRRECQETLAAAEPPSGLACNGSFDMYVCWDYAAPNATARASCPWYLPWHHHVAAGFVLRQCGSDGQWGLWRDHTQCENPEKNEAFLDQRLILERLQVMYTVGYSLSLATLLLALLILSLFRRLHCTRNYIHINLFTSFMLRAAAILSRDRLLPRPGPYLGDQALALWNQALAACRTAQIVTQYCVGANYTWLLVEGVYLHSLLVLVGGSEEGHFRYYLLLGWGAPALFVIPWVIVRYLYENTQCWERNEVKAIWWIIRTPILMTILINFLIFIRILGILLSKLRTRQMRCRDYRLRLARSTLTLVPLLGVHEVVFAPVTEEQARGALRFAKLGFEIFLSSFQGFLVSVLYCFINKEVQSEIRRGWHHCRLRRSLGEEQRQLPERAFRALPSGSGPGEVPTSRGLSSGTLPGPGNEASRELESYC
# B1: Example 1086 (peptide)
# chain: YXQGTFTSDXSQXLDKKAQXAFIEYLIAGGPSSGAPPPSGE
# modifications: Aib, 4Pal, αMeL, Me4Pal; acylated K; C-terminal amide; synthetic construct; SITE 2: note = 2-Aminoisobutyric Acid; SITE 10: note = 3-(4-Pyridyl)-L-alanine; SITE 13: note = alpha-methyl-leucine; SITE 17: note = Lysine is chemically modified through conjugation of the epsilon-amino group of the Lysine side chain with (Glu)-(gamma-Glu)-CO-(CH2)16-CO2H; SIT
# B2: Example 1087 (peptide)
# chain: B1 chain
# modifications: Aib, 4Pal, αMeL, Me4Pal; acylated lysine; amide; synthetic construct; SITE 2: note = 2-Aminoisobutyric Acid; SITE 10: note = 3-(4-Pyridyl)-L-alanine; SITE 13: note = alpha-methyl-leucine; SITE 17: note = Lysine is chemically modified through conjugation of the epsilon-amino group of the Lysine side chain with (Glu)2-(gamma-Glu)-CO-(CH2)16-CO2H; SI
# B3: Example 1088 (peptide)
# chain: YXQGTFTSDXSQXLDKKAQXAFIEYLIAGGPSSGAPPPSGEEE
# modifications: Aib, 4Pal, αMeL, Me4Pal, acylated K, C-terminal amide; synthetic construct; SITE 2: note = 2-Aminoisobutyric Acid; SITE 10: note = 3-(4-Pyridyl)-L-alanine; SITE 13: note = alpha-methyl-leucine; SITE 17: note = Lysine is chemically modified through conjugation of the epsilon-amino group of the Lysine side chain with D-Glutamic acid-(gamma-Glu)-CO-(CH2)16
# B4: Example 1089 (peptide)
# chain: B3 chain
# modifications: non-natural residues; acylated Lys; C-terminal amide; synthetic construct; SITE 2: note = 2-Aminoisobutyric Acid; SITE 10: note = 3-(4-Pyridyl)-L-alanine; SITE 13: note = alpha-methyl-leucine; SITE 17: note = Lysine is chemically modified through conjugation of the epsilon-amino group of the Lysine side chain with (Glu)-(gamma-Glu)-CO-(CH2)16-CO2H; SIT
# B5: Example 1090 (peptide)
# chain: B3 chain
# modifications: acylated Lys, C-terminal amide, non-natural residues; synthetic construct; SITE 2: note = 2-Aminoisobutyric Acid; SITE 10: note = 3-(4-Pyridyl)-L-alanine; SITE 13: note = alpha-methyl-leucine; SITE 17: note = Lysine is chemically modified through conjugation of the epsilon-amino group of the Lysine side chain with (Glu)2-(gamma-Glu)-CO-(CH2)16-CO2H; SI
# B6: Example 1091 (peptide)
# chain: B3 chain with K16X, G29X, E41S
# modifications: non-natural residues; acylated Lys C18 diacid; C-term amide; synthetic construct; SITE 2: note = 2-Aminoisobutyric Acid; SITE 10: note = 3-(4-Pyridyl)-L-alanine; SITE 13: note = alpha-methyl-leucine; SITE 16: note = L-ornithine; SITE 17: note = Lysine is chemically modified through conjugation of the epsilon-amino group of the Lysine side chain with (gamma-Gl)
# B7: Example 1092 (peptide)
# chain: B3 chain with K16X, G29X, A35E, E41S
# modifications: non-natural residues, acylated Lys ((γGlu)2-C18 diacid), C-terminal amide; synthetic construct; SITE 2: note = 2-Aminoisobutyric Acid; SITE 10: note = 3-(4-Pyridyl)-L-alanine; SITE 13: note = alpha-methyl-leucine; SITE 16: note = L-ornithine; SITE 17: note = Lysine is chemically modified through conjugation of the epsilon-amino group of the Lysine side chain with (gamma-Gl)
# B8: Example 1093 (peptide)
# chain: YXQGTFTSDXSQXLDXKAQXAFIEXLIEXGPSSGEPPPSGSEE
# modifications: non-natural residues, C18 diacid-(γGlu)2 acyl on K, C-terminal amide; synthetic construct; SITE 2: note = 2-Aminoisobutyric Acid; SITE 10: note = 3-(4-Pyridyl)-L-alanine; SITE 13: note = alpha-methyl-leucine; SITE 16: note = L-ornithine; SITE 17: note = Lysine is chemically modified through conjugation of the epsilon-amino group of the Lysine side chain with (gamma-Gl)
# B9: Example 1094 (peptide)
# chain: B8 chain with E28A
# modifications: non-natural residues (Aib, 4Pal, Orn, Me4Pal, αMeY); lipidated K; amide; synthetic construct; SITE 2: note = 2-Aminoisobutyric Acid; SITE 10: note = 3-(4-Pyridyl)-L-alanine; SITE 13: note = alpha-methyl-leucine; SITE 16: note = L-ornithine; SITE 17: note = Lysine is chemically modified through conjugation of the epsilon-amino group of the Lysine side chain with (gamma-Gl)
# B10: Example 1095 (peptide)
# chain: B8 chain with X25Y, E28A
# modifications: non-natural residues, C-terminal amide, acylated Lys with fatty diacid; synthetic construct; SITE 2: note = 2-Aminoisobutyric Acid; SITE 10: note = 3-(4-Pyridyl)-L-alanine; SITE 13: note = alpha-methyl-leucine; SITE 16: note = L-ornithine; SITE 17: note = Lysine is chemically modified through conjugation of the epsilon-amino group of the Lysine side chain with (2-[2-(2-
# B11: Example 1096 (peptide)
# chain: B8 chain with X25Y, E28Q
# modifications: non-natural residues; lipidated Lys AEEA-γGlu-C18 diacid; C-term amide; synthetic construct; SITE 2: note = 2-Aminoisobutyric Acid; SITE 10: note = 3-(4-Pyridyl)-L-alanine; SITE 13: note = alpha-methyl-leucine; SITE 16: note = L-ornithine; SITE 17: note = Lysine is chemically modified through conjugation of the epsilon-amino group of the Lysine side chain with (2-[2-(2-
# B12: Example 1097 (peptide)
# chain: B8 chain
# modifications: non-natural residues; acylated Lys; C-terminal amide; synthetic construct; SITE 2: note = 2-Aminoisobutyric Acid; SITE 10: note = 3-(4-Pyridyl)-L-alanine; SITE 13: note = alpha-methyl-leucine; SITE 16: note = L-ornithine; SITE 17: note = Lysine is chemically modified through conjugation of the epsilon-amino group of the Lysine side chain with (2-[2-(2-
# B13: Example 1098 (peptide)
# chain: B8 chain with A21Q
# modifications: non-natural residues, acylated Lys (AEEA-γGlu-C18 diacid), C-terminal amide; synthetic construct; SITE 2: note = 2-Aminoisobutyric Acid; SITE 10: note = 3-(4-Pyridyl)-L-alanine; SITE 13: note = alpha-methyl-leucine; SITE 16: note = L-ornithine; SITE 17: note = Lysine is chemically modified through conjugation of the epsilon-amino group of the Lysine side chain with (2-[2-(2-
# B14: Example 1099 (peptide)
# chain: B8 chain with E28A
# modifications: non-natural residues, AEEA-γGlu-diacid acylated Lys, C-terminal amide; synthetic construct; SITE 2: note = 2-Aminoisobutyric Acid; SITE 10: note = 3-(4-Pyridyl)-L-alanine; SITE 13: note = alpha-methyl-leucine; SITE 16: note = L-ornithine; SITE 17: note = Lysine is chemically modified through conjugation of the epsilon-amino group of the Lysine side chain with (2-[2-(2-
# Biological target: hGLP-1R (Homo sapiens, UniProt P43220)
# Assay: cell-based or functional assay
# hGLP-1R, sequence (P43220 24-463): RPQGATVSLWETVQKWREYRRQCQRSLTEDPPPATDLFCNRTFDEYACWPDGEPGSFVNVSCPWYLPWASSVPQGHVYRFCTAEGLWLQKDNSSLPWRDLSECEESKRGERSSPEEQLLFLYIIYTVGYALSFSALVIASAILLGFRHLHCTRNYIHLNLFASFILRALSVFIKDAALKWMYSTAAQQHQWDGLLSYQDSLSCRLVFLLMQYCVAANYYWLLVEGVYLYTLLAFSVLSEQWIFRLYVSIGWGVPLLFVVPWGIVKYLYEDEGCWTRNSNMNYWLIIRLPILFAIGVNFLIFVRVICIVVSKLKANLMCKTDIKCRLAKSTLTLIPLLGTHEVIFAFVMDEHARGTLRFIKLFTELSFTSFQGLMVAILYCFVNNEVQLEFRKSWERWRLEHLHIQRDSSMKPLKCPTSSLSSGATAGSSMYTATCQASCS
Binder,Relative cAMP EC50,cAMP Rel EC50 (1% HSA)
B1,1.23 nM,496 nM
B2,2.63 nM,439 nM
B3,2.99 nM,367 nM
B4,2.96 nM,449 nM
B5,5.44 nM,619 nM
B6,1.23 nM,145 nM
B7,1.33 nM,230 nM
B8,0.954 nM,141 nM
B9,0.623 nM,64.4 nM
B10,1.17 nM,159 nM
B11,1.47 nM,194 nM
B12,1.59 nM,141 nM
B13,1.22 nM,184 nM
B14,0.73 nM,75.8 nM

# Biological target: T1, human GIP receptor (human)
# Assay: cell-based or functional assay
Binder,Relative cAMP EC50,cAMP Rel EC50 (1% HSA)
B1,0.117 nM,21.2 nM
B2,0.207 nM,23.3 nM
B3,0.182 nM,15.6 nM
B4,0.213 nM,34.6 nM
B5,0.272 nM,27.3 nM
B6,0.0592 nM,5.79 nM
B7,0.0648 nM,7.83 nM
B8,0.152 nM,26.8 nM
B9,0.0515 nM,5.86 nM
B10,0.065 nM,8.73 nM
B11,0.0799 nM,11.6 nM
B12,0.136 nM,27.3 nM
B13,0.201 nM,31.2 nM
B14,0.076 nM,8.64 nM

# Biological target: human glucagon receptor (human) (UniProt P47871)
# Assay: cell-based or functional assay
# human glucagon receptor (human), sequence (P47871 26-477): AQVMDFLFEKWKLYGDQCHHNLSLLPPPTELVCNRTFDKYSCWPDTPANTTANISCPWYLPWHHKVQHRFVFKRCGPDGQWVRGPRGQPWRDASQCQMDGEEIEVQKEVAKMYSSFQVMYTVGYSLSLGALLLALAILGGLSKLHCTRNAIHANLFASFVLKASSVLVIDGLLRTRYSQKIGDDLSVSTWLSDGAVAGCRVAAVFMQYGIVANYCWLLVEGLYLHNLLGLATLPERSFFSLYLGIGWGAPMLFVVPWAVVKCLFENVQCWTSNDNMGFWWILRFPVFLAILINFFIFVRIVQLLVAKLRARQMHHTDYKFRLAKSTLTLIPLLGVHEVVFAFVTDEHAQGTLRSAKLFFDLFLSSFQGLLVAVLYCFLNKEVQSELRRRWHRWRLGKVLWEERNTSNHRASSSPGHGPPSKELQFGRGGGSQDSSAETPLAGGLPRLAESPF
Binder,Relative cAMP EC50,cAMP Rel EC50 (1% HSA)
B1,12 nM,3140 nM
B2,15.4 nM,2460 nM
B3,14.8 nM,1710 nM
B4,14 nM,2580 nM
B5,15.6 nM,2010 nM
B6,4.67 nM,550 nM
B7,3.45 nM,506 nM
B8,7.72 nM,958 nM
B9,5.84 nM,831 nM
B10,2.75 nM,337 nM
B11,3.94 nM,397 nM
B12,6.16 nM,752 nM
B13,6.2 nM,994 nM
B14,3.47 nM,472 nM
